In patent publication US20260116991A1 (HAINAN SIMCERE ZAIMING PHARMACEUTICAL, published 2026):

What was measured:
human GPC3-His protein = target: T1, human GPC3-His protein (human, UniProt P51654 25-559); assay: SPR, antibody captured on Protein A chip, human GPC3-His analyte;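 also: measured at 25 °C flow cell, human GPC3-His injected at five concentrations up to 200 nM, 240 s association, up to 600 s dissociation, double-referenced, fitted to Langmuir 1:1 model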
T1 construct: also called human GPC3 protein; not shown: His tag

monkey GPC3-His protein [1] = target: T2, monkey GPC3-His protein (monkey); assay: SPR, antibody captured on Protein A chip, monkey GPC3-His analyte;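 also: run at 25 °C with 240 s association and up to 600 s dissociation, double-referenced, kinetics fitted to a 1:1 Langmuir binding model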
T2 construct: Bought recombinant protein; also called monkey GPC3 protein
Description: The flow cell was set at 25° C. The sample block was set at 16° C. Both were pretreated with the running buffer. In each cycle, first, the antibody to be tested was captured using the Protein A chip, and then a single concentration of GPC3 antigen protein was injected. […] The association was determined by injecting different concentrations of human GPC3-His in the solution and maintaining for 240 s, wherein the flow rate was 30 μL/min, and the protein was diluted at a 1:1 dilution ratio from 200 nM to obtain 5 concentrations in total. The dissociation phase was monitored for up to 600 s and triggered by switching from the sample solution to the running buffer. The surface was regenerated by washing with 10 mM glycine solution (pH 1.5) at a flow rate of 30 μL/min for 30 s. The difference in bulk refractive index was corrected by subtracting the responses obtained from the goat anti-human Fc surface. Blank injections (double reference) were also subtracted. To calculate the apparent KD and other kinetic parameters, the Langmuir 1:1 model was used.

monkey GPC3-His protein [2] = target: T2, monkey GPC3-His protein; assay: ELISA, monkey GPC3-His coated;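 also: Plate-coated antigen at 1 µg/mL, antibody binding 2 h at 37 °C, detected with HRP-labeled secondary antibody and TMB, absorbance at 450 nm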
[3] = target: T3, monkey GPC3 on HEK293T-monkey GPC3 cells (monkey); assay: FACS on HEK293T-monkey GPC3 cells;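 also: flow cytometry binding of test antibodies to the cells, read as mean fluorescence intensity, with half-maximal concentration taken from fitted curves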
T3 construct: whole, on cells

[4] = target: biotinylated labeled human GPC3 protein (produced in-house) (human, UniProt P51654 25-559, limits assumed, biotinylated (Dojindo, Cat. No. LK03); sites not stated); assay: ELISA, biotinylated human GPC3 protein
[5] = target: T4, human GPC3 on CHO-K1-human GPC3 cells (CHOK1-hGPC3.2B5) (human, UniProt P51654 25-554); assay: FACS, CHOK1-hGPC3.2B5 cells;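 also: flow cytometry of humanized antibodies binding to the cells over one hour in the cold, read as cell mean fluorescence intensity, with EC50 obtained by curve fitting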
T4 construct: whole, on cells
Description: The desired cells were expanded to a logarithmic growth phase in a T-75 cell culture flask, the medium was removed by pipetting, and the cells were washed twice with a PBS buffer, and digested with trypsin. Then a complete medium was added to stop the digestion, and the cells were blown into a single cell suspension. After counting, the cells were centrifuged, and the cell pellet was resuspended with an FACS buffer (PBS+2% fetal bovine serum) to 2×10⁶ cells/mL. The cell resuspension solution was added to a 96-well FACS reaction plate at 50 μl/well, and a humanized antibody sample to be tested was added at 50 μl/well for incubation at 4° C. for 1 h. […] After the plate was centrifuged and washed 3 times with a PBS buffer, 100 μl of the resulting solution was assayed and analyzed by FACS (FACS Canto™, purchased from BD Biosciences). Data analysis was performed by software (FlowJo) to obtain the mean fluorescence intensity (MFI) of the cells. Then, analysis was performed by software (GraphPad Prism8), data were fitted, and EC₅₀ values were calculated.

| Binder | Kd (human GPC3-His protein) | koff (human GPC3-His protein) | kon (human GPC3-His protein) | Kd (monkey GPC3-His protein [1]) | koff (monkey GPC3-His protein [1]) | kon (monkey GPC3-His protein [1]) | OD450 at 0.0001 nM (monkey GPC3-His protein [2]) | OD450 at 0.001 nM (monkey GPC3-His protein [2]) | OD450 at 0.01 nM (monkey GPC3-His protein [2]) | OD450 at 0.1 nM (monkey GPC3-His protein [2]) | OD450 at 1 nM (monkey GPC3-His protein [2]) | OD450 at 10 nM (monkey GPC3-His protein [2]) | OD450 at 100 nM (monkey GPC3-His protein [2]) | further results |
| --- | --- | --- | --- | --- | --- | --- | --- | --- | --- | --- | --- | --- | --- | --- |
| F1.3.9 (antibody, human IgG1, kappa, V domains shown, Human-murine chimeric antibody) VH: QVQLQQPGTELVKPGASVKLSCKASGYTFTSYWIHWVKQRPGQGLEWIGNINPPNAGTNYNEKFKSKATLTVDKSSSTAYMQLSSLTSEDSAVYYCARGRWLLHDYWGQGTTLTVSS VL: DIQMTQSPASLSISVGETVTITCRASENIYSNLAWYQQKQGKSPQLLVYGTKNLAEGVPSRFSGSGSGTQYSLKINSLQSEDFGNYYCQHFWGTPYTFGGGTKLEILR | 2.54 nM | 7.28e-05 s⁻¹ | 28700 M⁻¹ s⁻¹ | 1.24 nM | 4.74e-05 s⁻¹ | 38200 M⁻¹ s⁻¹ | 0.04 OD450 | 0.05 OD450 | 0.16 OD450 | 0.56 OD450 | 1.52 OD450 | 1.7 OD450 | 1.82 OD450 |  |
| F1.62.9 (antibody, human IgG1, kappa, V domains shown, Human-murine chimeric antibody) VH: QVQLQQSDAELVKPGASVKISCKVSGYIFTDHTIHWMKQRPEQGLEWIGYIYPRDGSIKYNENFKGKATLTADKSSSATYMQLNSLTSEDSAVYFCARPIYYDYAYYFDYWGQGTTLTVSS VL: DVVMTQSPLSLPVSLGDQASISCRSRQSLVHSNGNTYLHWYLQKPGQSPKVLIYKVSNRFSGVPDRFSGSGSGTDFTLKISRVEAEDLGVYFCSQSTHVPYTFGGGTKLEIKR | 46 nM | 0.00129 s⁻¹ | 28000 M⁻¹ s⁻¹ | 44 nM | 0.00156 s⁻¹ | 35500 M⁻¹ s⁻¹ | 0.21 OD450 | 0.36 OD450 | 0.39 OD450 | 0.56 OD450 | 0.64 OD450 | 0.66 OD450 | 1.06 OD450 |  |
| F2.39.2 (antibody, human IgG1, kappa, V domains shown, Human-murine chimeric antibody) VH: QVQLQQSGAELVRPGASVKVSCKASGYTFTDYEMHWMKQTPVHGLEWIGANEPETGRSAYDQKFKGKATLTADKSSSTAYMELRSLTSEDSAVYYCTRFYSFAYWGQGTLVTVSA VL: DVVMTQTPLSLPVSLGDQASISCRSSQGLVHNNGNTYLHWYLQKPGQSPKLLIYKVSNRFSGVPDRFSGSGSGTDFTLKISRVEAEDLGVYFCSQNTHVPPTFGGGTKLEIKR | 6.97 nM | 0.0021 s⁻¹ | 302000 M⁻¹ s⁻¹ | 4.28 nM | 0.00219 s⁻¹ | 512000 M⁻¹ s⁻¹ | 0.21 OD450 | 0.34 OD450 | 0.66 OD450 | 1.98 OD450 | 2.36 OD450 | 2.28 OD450 | 2.35 OD450 |  |
| F2.92.1 (antibody, human IgG1, kappa, V domains shown, Human-murine chimeric antibody) VH: QVQLQQSGAELVRPGASVKLSCKASGYIFSDYEIHWVKQTPVHGLECIGAVDPETGGTAYNQKFKGKATLTADKSSSTAYMELRSLTSEDSAVYFCTRFYSFAYWGQGTLVTVST VL: DVVMTQTPLSLPVSLGDQGSISCRSSQSLVHSNGNTYLQWYLQKPGQSPKLLIYKVSNRFSGVPDRFSGSGSGTDFTLKISRVEAEDLGVYFCCQSTHVLPTFGGGTKLEIKR | 0.6 nM | 0.000242 s⁻¹ | 404000 M⁻¹ s⁻¹ | 0.353 nM | 0.000221 s⁻¹ | 628000 M⁻¹ s⁻¹ | 0.23 OD450 | 0.27 OD450 | 0.65 OD450 | 1.9 OD450 | 2.3 OD450 | 2.24 OD450 | 2.34 OD450 |  |
| F2.23.8 (antibody, human IgG1, kappa, V domains shown, Human-murine chimeric antibody) VH: QVQLQQSGAELVRPGASVKLSCKASGYTFTDYEMHWVKQTPVHGLEWFGAIDPETGGTAYNQKFRAKATLTADKSSSTAYMELRSLTSEDSAVYYCTRFYSFAYWGQGTLVTVSA VL: DVVMTQTPLSLPVSLGDQASISCRSSQSLVHSNGNTYLQWYLQKPGQSPKLLIYKVSNRFSGVPDRFSGSGSGTDFTLKITRVEAEDLGVYFCSQSTHVPYTFGSGTKLEIKR | 20.4 nM | 0.00327 s⁻¹ | 161000 M⁻¹ s⁻¹ | 13.5 nM | 0.0038 s⁻¹ | 281000 M⁻¹ s⁻¹ | 0.27 OD450 | 0.28 OD450 | 0.58 OD450 | 1.8 OD450 | 2.22 OD450 | 2.24 OD450 | 2.25 OD450 |  |
| F1.42.8 (antibody, human IgG1, kappa, V domains shown, Human-murine chimeric antibody) VH: HVQLQQPGAELVKPGASVKLSCKASGYTFTSYWMHWVRQRPGQGLEWIEMIHPNSGSTNYNEKFKSKATLTVDKSSSTAYMQLSSLTSEDSAVYYCARGNYNSSLYAMDYWGQGTSVTVSS VL: DIQMTQTTSSLSASLGDRVTISCSASQGISNYLNWYQQKPDGTVKLLIYYASNLHSGVPSRFSGSGSGTAYSLTISNLEPEDIATYYCQQYSILPYTFGGGTKLEIKR |  |  |  |  |  |  | 0.05 OD450 | 0.08 OD450 | 0.35 OD450 | 1.61 OD450 | 2.31 OD450 | 2.46 OD450 | 2.67 OD450 | EC50 [3]: 0.27 nM; Max MFI [3]: 7620 MFI |
| GC33 IgG (antibody, V domains shown, Control antibody expressed as complete IgG; also called codrituzumab) VH: QVQLVQSGAEVKKPGASVKVSCKASGYTFTDYEMHWVRQAPGQGLEWMGALDPKTGDTAYSQKFKGRVTLTADKSTSTAYMELSSLTSEDTAVYYCTRFYSYTYWGQGTLVTVSS VL: DVVMTQSPLSLPVTPGEPASISCRSSQSLVHSNRNTYLHWYLQKPGQSPQLLIYKVSNRFSGVPDRFSGSGSGTDFTLKISRVEAEDVGVYYCSQNTHVPPTFGQGTKLEIKR |  |  |  |  |  |  |  |  |  |  |  |  |  | OD450 at 0.0004 nM [4]: 0.054 OD450; OD450 at 0.002 nM [4]: 0.067 OD450; OD450 at 0.011 nM [4]: 0.127 OD450; OD450 at 0.056 nM [4]: 0.442 OD450; OD450 at 0.28 nM [4]: 0.993 OD450; OD450 at 1.39 nM [4]: 1.5 OD450; OD450 at 6.94 nM [4]: 1.36 OD450; OD450 at 34.72 nM [4]: 1.3 OD450; EC50 [5]: 2.19 nM; Max MFI [5]: 17000 MFI |
| F1.9.19 (antibody, human IgG1, kappa, V domains shown, Human-murine chimeric antibody) VH: DVQLQESGPGLVKPSQSLSLTCSVTGYSITSGYYWNWIRQFPGNRLEWMAYISYDGINNYNPSLKNRISIARDTSTNQFFLKLNSVTSEDTATYYCATTTEVALFDHWGQGTTLTVSS VL: DVLLTQTPLSLPVSLGDQASISCRSSQNIVHGNGNTYLEWFLQKPGQSPKLLIYKVSNRFSGVPDRFSGSGSGTDFTLKISRVEAEDLGLYYCFQASHVPWTFGGGTKLEIKR | 9.04 nM | 0.000314 s⁻¹ | 34700 M⁻¹ s⁻¹ | 6.61 nM | 0.000317 s⁻¹ | 48000 M⁻¹ s⁻¹ | 0.04 OD450 | 0.25 OD450 | 0.3 OD450 | 0.72 OD450 | 1.39 OD450 | 1.53 OD450 | 1.5 OD450 |  |
| F1.73.9 (antibody, human IgG1, kappa, V domains shown, Human-murine chimeric antibody) VH: QVQLKQSGAELVRPGASVKLSCKASGYTFTDYYINWVKQRPGQGLEWIARIYPGSGNTYYNEKFKGKATLTAEKSSSTAYMQFSSLTSEDSAVYFCACSTYYTMDYWGQGTSVTVSS VL: QIVLTQSPAIMSASLGERVTMTCTASSGVSSSYLHWYQQKPGSSPKLWIYTTSNLASGVPARFSGSGSGTSYSLTISSMEAEDAATYYCHQYHRSPYTFGGGTKLEIKR |  |  |  |  |  |  | 0.05 OD450 | 0.06 OD450 | 0.18 OD450 | 0.73 OD450 | 1.14 OD450 | 1.27 OD450 | 1.47 OD450 | EC50 [3]: 0.32 nM; Max MFI [3]: 5700 MFI |
| F1.153.1 (antibody, human IgG1, kappa, V domains shown, Human-murine chimeric antibody) VH: QIQLVQSGPELKKPGETVKISCKASGYTFTTAGMQWVQKMPGKGFKWIGWINTHSGEPQYAEDFKGRFAFSLETSASTAYLQISNLKNEDTATYFCARSFYYHGSSFFYFDYWGQGTTLTVSS VL: DIVMTQSQKFMSTTVGDRVSITCKASQNVGTAVAWYQQKPGQSPKLLIYSASNRYTGVPDRFTGSGSGADFTLTISNMQSEDLADYFCQQYSRYPLTFGAGTKLELKR | 0.92 nM | 6.22e-05 s⁻¹ | 67600 M⁻¹ s⁻¹ | 0.414 nM | 4.27e-05 s⁻¹ | 103000 M⁻¹ s⁻¹ | 0.27 OD450 | 0.36 OD450 | 0.49 OD450 | 1.06 OD450 | 1.61 OD450 | 1.98 OD450 | 2 OD450 |  |
